According to patent publication US7122382 (RIKEN, dated 2006):
Read-outs that look alike come from different tables or passages of the source.

T1: Bpx protein (nucleosome assembly protein homologue) (2-1H) (mouse, UniProt P51860 1-460, limits assumed, 35S-methionine label or biotinylated lysine, by its role in the assay)
T1 construct: also called NAP 1-like protein L2
T1 sequence (looked up): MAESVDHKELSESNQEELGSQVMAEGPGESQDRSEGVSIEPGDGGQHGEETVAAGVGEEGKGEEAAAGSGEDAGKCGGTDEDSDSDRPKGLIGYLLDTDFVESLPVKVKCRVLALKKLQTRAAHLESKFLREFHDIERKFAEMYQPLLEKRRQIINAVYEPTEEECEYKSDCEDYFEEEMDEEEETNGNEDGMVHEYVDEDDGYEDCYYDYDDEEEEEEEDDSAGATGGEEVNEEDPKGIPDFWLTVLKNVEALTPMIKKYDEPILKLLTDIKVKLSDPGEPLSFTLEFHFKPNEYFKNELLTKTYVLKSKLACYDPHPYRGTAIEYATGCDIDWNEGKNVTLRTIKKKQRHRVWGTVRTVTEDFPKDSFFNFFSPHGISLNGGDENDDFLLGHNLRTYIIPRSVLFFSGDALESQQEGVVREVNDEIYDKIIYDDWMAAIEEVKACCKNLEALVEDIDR

B1: p53 (other, UniProt P02340 1-390, looked up)
chain: MTAMEESQSDISLELPLSQETFSGLWKLLPPEDILPSPHCMDDLLLPQDVEEFFEGPSEALRVSGAPAAQDPVTETPGPVAPAPATPWPLSSFVPSQKTYQGNYGFHLGFLQSGTAKSVMCTYSPPLNKLFCQLAKTCPVQLWVSATPPAGSRVRAMAIYKKSQHMTEVVRRCPHHERCSDGDGLAPPQHLIRVEGNLYPEYLEDRQTFRHSVVVPYEPPEAGSEYTTIHYKYMCNSSCMGGMNRRPILTIITLEDSSGNLLGRDSFEVRVCACPGRDRRTEEENFRKKEVLCPELPPGSAKRALPTCTSASPPQKKKPLDGEYFTLKIRGRKRFEMFRELNEALELKDAHATEESGDSRAHSSYLKTKKGQSTSRHKKTMVKKVGPDSD
modifications: 35S-methionine label or biotinylated lysine, by its role in the assay
B2: Fos (other, UniProt P01101 1-380, looked up)
chain: MMFSGFNADYEASSSRCSSASPAGDSLSYYHSPADSFSSMGSPVNTQDFCADLSVSSANFIPTVTAISTSPDLQWLVQPTLVSSVAPSQTRAPHPYGLPTQSAGAYARAGMVKTVSGGRAQSIGRRGKVEQLSPEEEEKRRIRRERNKMAAAKCRNRRRELTDTLQAETDQLEDEKSALQTEIANLLKEKEKLEFILAAHRPACKIPDDLGFPEEMSVASLDLTGGLPEASTPESEEAFTLPLLNDPEPKPSLEPVKSISNVELKAEPFDDFLFPASSRPSGSETSRSVPDVDLSGSFYAADWEPLHSNSLGMGPMVTELEPLCTPVVTCTPGCTTYTSSFVFTYPEADSFPSCAAAHRKGSSSNEPSSDSLSSPTLLAL
modifications: 35S-methionine label or biotinylated lysine, by its role in the assay
notes: Crude translation mix, not purified
B3: Jun (other, UniProt P05627 1-334, looked up)
chain: MTAKMETTFYDDALNASFLQSESGAYGYSNPKILKQSMTLNLADPVGSLKPHLRAKNSDLLTSPDVGLLKLASPELERLIIQSSNGHITTTPTPTQFLCPKNVTDEQEGFAEGFVRALAELHSQNTLPSVTSAAQPVSGAGMVAPAVASVAGAGGGGGYSASLHSEPPVYANLSNFNPGALSSGGGAPSYGAAGLAFPSQPQQQQQPPQPPHHLPQQIPVQHPRLQALKEEPQTVPEMPGETPPLSPIDMESQERIKAERKRMRNRIAASKCRKRKLERIARLEEKVKTLKAQNSELASTANMLREQVAQLKQKVMNHVNSGCQLMLTQQLQTF
modifications: 35S-methionine label or biotinylated lysine, by its role in the assay
B4: Caspase 6 (1-9E) (enzyme, mouse, UniProt O08738 1-276, looked up)
chain: MTETDGFYKSREVFDPAEQYKMDHKRRGVALIFNHERFFWHLTLPERRGTNADRDNLTRRFSDLGFEVKCFNDLRAEELLLKIHEVSTSSHIDADCFICVFLSHGEGNHVYAYDAKIEIQTLTGLFKGDKCQSLVGKPKIFIIQACRGSQHDVPVVPLDMVDHQTDKLDNVTQVDAASVYTLPAGADFLMCYSVAEGYYSHRETVNGSWYIQDLCEMLARYGSSLEFTELLTLVNRKVSQRRVDFCKDPDAIGKKQVPCFASMLTKKLHFCPKPSK
modifications: 35S-methionine label or biotinylated lysine, by its role in the assay
B5: MB20 protein (function unknown, 2-10F) (other, mouse, UniProt Q794H2 1-544, looked up)
chain: MAEADPKMVTEPGAHGVAEEAMASTACDSGDESDSNSSSSTNSCSSSGSSSSGSSSSSSSSSSSSSSSSSSSSGSSGSSSNGSHLNRKKRVPEPSRRAQRRPSGKLFLDKLPQAVRNRVQALRNIQNECDKVDTLFLRAIHDLERKYAELNKPLYDKRFQIINAEYEPTEEECEWNSEEEFSGDEEMQDDTPNEMPPLEGEEEEESCNEKAEVKEEGTHVPEEVPEAKVEEEEAPKETPEVKTEEKDIPKEGAEEKAEEQESSKEIPEVKGEEKADSTDCIDIAPEEKEDVKEVTQANTENKDQPTEEFTPRAPAREAQKRVPETRPEEGVNIKRARKGKPKKEDPKGIPDYWLTVLKNVDKLGPMIQKCDEPILKFLSDVSLKFSNPGQPIGYTFEFHFLPNPYFRNELLMKTYIIRSKPDHYDPFFAWGWEIEECKGCKIDWRRGKDVTVTTTRSRPGITGEIEVQPRVVPNASFFNFFSPPEIPLIGKLEPREDAILDEDFEIGQILHDNVILKSIYYFTGEINDPYYHDFRDYGNRKYYK
modifications: 35S-methionine label or biotinylated lysine, by its role in the assay
notes: also called NAP1-like protein L3

Tests used:
[1] = biological target: luciferase (UniProt P08659 1-550 = luciferase, 35S-methionine label or biotinylated lysine, by its role in the assay); assay: biotinylated row protein on streptavidin beads, 35S column protein counted
Experimental: (§1) That is, 2.5 μL of each reaction solution was mixed and placed on ice for 60 min. A 15 μL quantity of streptoavidin (Dynabeads) diluted with TBST-1 percent skim milk was added, and the mixture was stirred for 30 min at 4° C. Magnetic force was employed to recover the beads, thorough washing was conducted with TBST, and then the RI of the beads was measured.

[2] = biological target: B3; assay: as above
Experimental: as §1

[3] = biological target: B2; assay: as above
Experimental: as §1

[4] = biological target: B1; assay: as above
Experimental: as §1

[5] = biological target: SV40 large T (SV40, UniProt P03070 1-708); assay: as above
Experimental: as §1

[6] = biological target: the molecule itself; assay: as above
Experimental: as §1

[7] = biological target: 1-9G (mouse); assay: single proteins, rows taken as 35S-labelled and columns as biotinylated, streptavidin beads
[8] = biological target: 1-9F (mouse); assay: as above
[9] = biological target: 1-9H (mouse); assay: as above
[10] = biological target: the molecule itself; assay: as above
[11] = biological target: 2-10H (mouse); assay: as above
[12] = biological target: 2-10G (mouse); assay: as above
[13] = biological target: DnaJ-like protein (Hsj2) (2-10E) (mouse, UniProt P63037 1-397, 35S-methionine label or biotinylated lysine, by its role in the assay); assay: as above
[14] = biological target: the molecule itself; assay: as above; remark: listed apart in the source
[15] = biological target: 2-1E (mouse); assay: as above
[16] = biological target: T1, Bpx protein (nucleosome assembly …); assay: as above
[17] = biological target: 2-1G (mouse); assay: as above
[18] = biological target: 2-1F (mouse); assay: as above

Chain of luciferase (P08659 whole entry): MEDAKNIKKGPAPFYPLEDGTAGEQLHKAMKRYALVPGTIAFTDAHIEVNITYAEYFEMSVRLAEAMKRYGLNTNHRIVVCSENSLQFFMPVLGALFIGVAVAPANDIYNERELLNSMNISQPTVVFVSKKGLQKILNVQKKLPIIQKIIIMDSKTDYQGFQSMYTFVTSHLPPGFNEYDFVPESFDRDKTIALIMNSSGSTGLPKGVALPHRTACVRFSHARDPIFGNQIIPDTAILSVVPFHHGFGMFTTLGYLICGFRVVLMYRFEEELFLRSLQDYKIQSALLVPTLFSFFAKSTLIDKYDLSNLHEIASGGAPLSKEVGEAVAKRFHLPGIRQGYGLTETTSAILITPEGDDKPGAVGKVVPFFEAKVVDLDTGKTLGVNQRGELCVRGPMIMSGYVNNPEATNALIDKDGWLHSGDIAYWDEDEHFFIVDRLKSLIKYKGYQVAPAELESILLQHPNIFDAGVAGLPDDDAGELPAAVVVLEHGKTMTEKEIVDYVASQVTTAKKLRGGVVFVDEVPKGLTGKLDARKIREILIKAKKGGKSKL

Row | Binder | RI (c.p.m.) [1] [c.p.m.] | RI (c.p.m.) [2] [c.p.m.] | RI (c.p.m.) [3] [c.p.m.] | RI (c.p.m.) [4] [c.p.m.] | RI (c.p.m.) [5] [c.p.m.] | RI (c.p.m.) [6] [c.p.m.] | further results
1 | B1 | 154 | 206 | 232 | – | – | – | –
2 | B2 | 172 | 675 | – | 169 | 156 | 177 | –
3 | B3 | 131 | – | 707 | 187 | 176 | 204 | –
4 | B4 | – | – | – | – | – | – | RI (cpm) [7]: 36 cpm; RI (cpm) [8]: 32 cpm; RI (cpm) [9]: 37 cpm; RI (cpm) [10]: 225 cpm
5 | B5 | – | – | – | – | – | – | RI (cpm) [11]: 98 cpm; RI (cpm) [12]: 67 cpm; RI (cpm) [13]: 87 cpm; RI (cpm) [14]: 168 cpm; RI (cpm) [15]: 60 cpm; RI (cpm) [16]: 736 cpm; RI (cpm) [17]: 72 cpm; RI (cpm) [18]: 60 cpm
